Reference: PMC9586977, “Structure of the pre-mRNA leakage 39-kDa protein reveals a single domain of integrated zf-C3HC and Rsm1 modules” (Scientific Reports, 2022)

B1: ScPml39_(77–317), truncated Saccharomyces cerevisiae pre-mRNA leakage 39-kDa protein (residues 77–317) (domain or fragment, UniProt Q03760 77-317, looked up)
chain: GFRLHDLRALLKRICSIQNYTRHVLIEWDVRWVNPLTLASKGWEPYQSASQSQVPFKCCCCHAIMTIPLLKNGDDVADYTMKLNEKIWNSNIIGNHLQKCPWRENQVDLNKEYYLSSQNLIREIERIHTEIDRIVSGSNEFSLKRNSSRIFHYLSEKEIQKLAFFFDCKDYSLVGLLLLGYTKFQKDDLVQCTACFHRASLKKLEYTEFNGHALWCRYYNKELLPTMLLELIGKEDKLITK
notes: Pml39 (pre-mRNA leakage 39-kDa protein), Saccharomyces cerevisiae, UniProtKB Q03760, residues 77-317 of 334; holds the zf-C3HC (79-189) and Rsm1 (190-311) modules; Cloned into NcoI/NotI of pET28a; hexahistidine tag removed with PreScission protease; also called truncated ScPml39; source: E. coli BL21(DE3)-RIL CodonPlus, purified (Ni-NTA, HiTrap SP, Superdex 200)
B2: ScMlp1_(1–325), N-terminal fragment of Saccharomyces cerevisiae Myosin-like protein 1 (residues 1–325), homodimer (domain or fragment, UniProt Q02455 1-325, looked up)
chain: MSDHDTPMESIQNGENSDERLNAIASFFGCSLEQVKSFDGDVVKHLNDKLLQFNELKSENLKVTVSFDELKASSLKKIDGLKTEMENVIRENDKIRKERNDTFVKFESVENEKMKLSSELEFVKRKLDDLTEEKKETQSNQQRTLKILDERLKEIELVRVENNRSNSECKKLRSTIMDLETKQQGYITNDLNSRTELERKTQELTLLQSNNDWLEKELRSKNEQYLSYRQKTDKVILDIRNELNRLRNDFQMERTNNDVLKQKNNELSKSLQEKLLEIKGLSDSLNSEKQEFSAEMSLKQRLVDLLESQLNAVKEELNSIRELNT
notes: Cloned into NcoI/NotI of pET28a; hexahistidine tag removed with PreScission protease; Homodimer by SEC-MALS (~80 kDa; expected monomer 41 kDa); also called ΔC-ScMlp1; source: E. coli BL21(DE3)-RIL CodonPlus, purified (Ni-NTA, HiTrap Q, Superdex 200)

Columns and labels:
[1] = biological target: B2; assay: ITC; 1.6 mM ScPml39(77-317) injected (2 µl every 180 s) into 350 µl of 70 µM ScMlp1(1-325) in the chamber; 4 °C; 500 mM NaCl, 20 mM HEPES pH 7.5, 0.5 mM TCEP; three independent measurements; settings: both partners purified
[2] = biological target: the molecule itself; assay: SEC-MALS; 100 µl of 70 µM ScMlp1(1-325) on Superdex 200 10/300 GL, 0.5 mL/min, 25 °C; 500 mM NaCl, 20 mM HEPES-NaOH pH 7.5, 0.5 mM TCEP

Binder	Kd [1] [µM]	stoichiometry N [1]	stoichiometry N [2]
B1	~13	1	–
B2	–	–	2
